Laboratory results: patent US20220267410A1 (UNIVERSITAT STUTTGART, published 2022)

T1: human TNFR2-Fc (etanercept) (human, UniProt P20333 23-257)
T1 construct: Commercial drug coated on ELISA plates (200 ng/well); also called immobilized TNF-R2; not shown: Fc part of etanercept
T1 sequence (looked up): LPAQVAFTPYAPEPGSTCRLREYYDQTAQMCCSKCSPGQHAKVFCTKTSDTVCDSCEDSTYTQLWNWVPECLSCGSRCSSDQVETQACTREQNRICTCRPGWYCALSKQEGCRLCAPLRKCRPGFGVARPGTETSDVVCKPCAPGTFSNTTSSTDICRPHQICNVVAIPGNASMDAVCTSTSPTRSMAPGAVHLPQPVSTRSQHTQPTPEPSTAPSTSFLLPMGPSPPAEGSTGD

T2: TNFR2 on Kym-1 cells (UniProt P20333 23-461, limits assumed)
T2 sequence (looked up): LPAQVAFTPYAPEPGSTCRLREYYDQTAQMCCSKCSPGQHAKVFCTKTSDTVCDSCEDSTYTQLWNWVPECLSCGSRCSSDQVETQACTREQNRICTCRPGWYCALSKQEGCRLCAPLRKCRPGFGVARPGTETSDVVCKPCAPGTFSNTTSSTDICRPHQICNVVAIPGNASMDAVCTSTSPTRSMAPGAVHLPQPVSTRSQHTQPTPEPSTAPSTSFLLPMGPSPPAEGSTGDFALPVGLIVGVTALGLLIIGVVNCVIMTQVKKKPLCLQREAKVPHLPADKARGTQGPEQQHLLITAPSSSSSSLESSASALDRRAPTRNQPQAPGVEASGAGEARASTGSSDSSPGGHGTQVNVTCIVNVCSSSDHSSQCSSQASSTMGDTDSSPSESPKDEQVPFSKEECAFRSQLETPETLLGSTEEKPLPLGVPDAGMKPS


Legend:
[1] = target: T1, human TNFR2-Fc (etanercept); assay: ELISA on coated etanercept
Method: The binding of scTNFR2 and the scTNFR2-Fc(Δab) proteins to human TNFR2-Fc (etanercept) was analyzed by ELISA. 96-well ELISA plates were coated with 200 ng/well etanercept in coating buffer (0.1 M sodium carbonate, pH 9.5) overnight at 4° C., blocked with 2% skim milk in PBS (MPBS) and washed with washing buffer PBST (PBS, 0.05 Tween 20). ScTNFR2 and scTNFR2-Fc(Δab) proteins were titrated in duplicates and incubated on the plates for 2 h at room temperature, followed by washing with PBST. Receptor-bound complexes were detected with mouse anti-huTNFα F6C5 (Novus, 1 μg/ml) and goat anti-mouse IgG(Fc)-HRP (Sigma-Aldrich, 1:10,000), followed by extensive washing with PBST each, before incubation with HRP substrate.

TNFR2 on Kym-1 cells = target: T2, TNFR2 on Kym-1 cells; assay: cell-based or functional assay

Row | EC50 [1] [nM] | Binder | EC50 of bioactivity on Kym-1 with 80M2 (cell death, crystal violet) (TNFR2 on Kym-1 cells) [nM]
1 | 0.67 | 6xHis-scTNFR2 143 (ligand, Expressed with Igκ leader and N-terminal 6xHis tag; also called variant 143) MCGSHHHHHHSGIPASDKPVAHVVANPQAEGQLQWLNRRANALLANGVELRDNQLVVPSEGLYLIYSQVLFKGQGCPSTHVLLTHTISRIAVSYQTKVNLLSAIKSPCQRETPEGAEAKPWYEPIYLGGVFQLEKGDRLSAEINRPDYLNFRESGQVYFGIIALGGGPSDKPVAHVVANPQAEGQLQWLNRRANALLANGVELRDNQLVVPSEGLYLIYSQVLFKGQGCPSTHVLLTHTISRIAVSYQTKVNLLSAIKSPCQRETPEGAEAKPWYEPIYLGGVFQLEKGDRLSAEINRPDYLNFRESGQVYFGIIALGGGPSDKPVAHVVANPQAEGQLQWLNRRANALLANGVELRDNQLVVPSEGLYLIYSQVLFKGQGCPSTHVLLTHTISRIAVSYQTKVNLLSAIKSPCQRETPEGAEAKPWYEPIYLGGVFQLEKGDRLSAEINRPDYLNFRESGQVYFGIIAL | 0.0119
2 | 0.71 | 6xHis-scTNFR2 146 (ligand, Expressed with Igκ leader and N-terminal 6xHis tag; also called variant 146) MCGSHHHHHHSGIPASDKPVAHVVANPQAEGQLQWLNRRANALLANGVELRDNQLVVPSEGLYLIYSQVLFKGQGCPSTHVLLTHTISRIAVSYQTKVNLLSAIKSPCQRETPEGAEAKPWYEPIYLGGVFQLEKGDRLSAEINRPDYLNFRESGQVYFGIIALGGGTPSDKPVAHVVANPQAEGQLQWLNRRANALLANGVELRDNQLVVPSEGLYLIYSQVLFKGQGCPSTHVLLTHTISRIAVSYQTKVNLLSAIKSPCQRETPEGAEAKPWYEPIYLGGVFQLEKGDRLSAEINRPDYLNFRESGQVYFGIIALGGGTPSDKPVAHVVANPQAEGQLQWLNRRANALLANGVELRDNQLVVPSEGLYLIYSQVLFKGQGCPSTHVLLTHTISRIAVSYQTKVNLLSAIKSPCQRETPEGAEAKPWYEPIYLGGVFQLEKGDRLSAEINRPDYLNFRESGQVYFGIIAL | 0.00655
3 | 0.76 | 6xHis-scTNFR2 147 (ligand, Expressed with Igκ leader and N-terminal 6xHis tag; also called variant 147) MCGSHHHHHHSGIPASDKPVAHVVANPQAEGQLQWLNRRANALLANGVELRDNQLVVPSEGLYLIYSQVLFKGQGCPSTHVLLTHTISRIAVSYQTKVNLLSAIKSPCQRETPEGAEAKPWYEPIYLGGVFQLEKGDRLSAEINRPDYLNFRESGQVYFGIIALGGGGPSDKPVAHVVANPQAEGQLQWLNRRANALLANGVELRDNQLVVPSEGLYLIYSQVLFKGQGCPSTHVLLTHTISRIAVSYQTKVNLLSAIKSPCQRETPEGAEAKPWYEPIYLGGVFQLEKGDRLSAEINRPDYLNFRESGQVYFGIIALGGGGPSDKPVAHVVANPQAEGQLQWLNRRANALLANGVELRDNQLVVPSEGLYLIYSQVLFKGQGCPSTHVLLTHTISRIAVSYQTKVNLLSAIKSPCQRETPEGAEAKPWYEPIYLGGVFQLEKGDRLSAEINRPDYLNFRESGQVYFGIIAL | 0.00858
